Consider 1 substance from patent publication US20240209399A1.

The experiment has as its target TnsC-BP-NLS-VP64 (plasmid pSL2783, p6A_hCO_Vch_TnsC_BP-NLS-VP64) (Vibrio cholerae). The experiment in a line: cell-based or functional assay.

On to “TnsABf (plasmid pSL2669, pcDNA3.1_hCO_Vch_TnsA_BP-NLS_TnsB)”, for which the level of transcriptional activation (mCherry MFI relative to the non-targeting control, HEK293T reporter assay) came out at 2 fold.
